In paper PMC10529061:

Target: His6-tagged CHIP (C-terminus of Hsc70-interacting protein) (UniProt Q9UNE7)
Experiment: BLI

UniProt Q9UNE7, sequence (Q9UNE7 whole entry): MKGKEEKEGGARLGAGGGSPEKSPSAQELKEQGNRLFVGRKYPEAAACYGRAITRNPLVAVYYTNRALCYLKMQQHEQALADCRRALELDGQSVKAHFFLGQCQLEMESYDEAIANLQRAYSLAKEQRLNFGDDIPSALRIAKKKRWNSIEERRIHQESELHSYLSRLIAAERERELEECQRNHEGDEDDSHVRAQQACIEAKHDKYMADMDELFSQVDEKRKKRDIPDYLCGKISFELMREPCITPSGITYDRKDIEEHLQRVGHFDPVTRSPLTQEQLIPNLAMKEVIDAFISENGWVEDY

- Kd: 6.28 µM
Substance: E2 (UbcH5b), wild type (from UniProt P62837 1-147) (enzyme; other documents disagree on this pair)
